Data on one molecule can be found in US20100068145A1.

The target in this assay is Collagen I. Nature of the assay: cell-based or functional assay.

B1: GPVI-CD133 construct (bispecific fusion protein: soluble GPVI-Fc chemically conjugated via SPDP to the CD133-reactive monoclonal antibody W6B3C1) (protein, part only; not given: Fc and anti-CD133 antibody chains, human, not shown: a dimerising Fc or GST)
chain, part: QSGPLPKPSLQALPSSLVPLEKPVTLRCQGPPGVDLYRLEKLSSSRYQDQAVLFIPAMKRSLAGRYRCSYQNGSLWSLPSDQLELVATGVFAKPSLSAQPGPAVSSGGDVTLQCQTRYGFDQFALYKEGDPAPYKNPERWYRASFPIITVTAAHSGTYRCYSFSSRDPYLWSAPSDPLELVVTGTSVTPSRLPTEPPSSVAEFSEATAELTVSFTNKVFTTETSRSITTSPKESDSPAGPARQYYTK
modifications: amino groups modified with SPDP (N-succinimidyl 3-(2-pyridyldithio)-propionate), reduced with DTT and conjugated to the SPDP-modified CD133 antibody
B1 yielded an adhesion of EPCs (CD34+ cells) to immobilized collagen I, flow chamber model (2,000 sec^-1), fold against collagen alone of 10 fold and an adhesion of EPCs (CD34+ cells) to immobilized collagen I, static adhesion assay, fold against collagen alone of 5 fold.
